Assay results from US20100261178A1.

What was measured:
[1] = molecular target: human adiponectin receptor AdipoR1 (human) (UniProt Q96A54)
[2] = molecular target: human adiponectin receptor AdipoR2 (human) (UniProt Q86V24)

EC50 of adiponectin for repression of FET3-lacZ [1]: 0.7 pM
log EC50 pM of adiponectin for repression of FET3-lacZ [1]: -0.13 log EC50 pM
EC50 of adiponectin for repression of FET3-lacZ [2]: 2.4 pM
log EC50 pM of adiponectin for repression of FET3-lacZ [2]: 0.38 log EC50 pM
Substance: adiponectin (ligand)
